# Values joined by “and” are separate entries in the source; they are usually repeats but may differ in a detail not shown here. Equal entries are not always repeated.
# Experiments:
# 5-Helix [1] = molecular target: T1, 5-Helix (HIV-1); experiment: phage ELISA on biotinylated peptide captured on streptavidin plates
# T1 construct: also called HIV-1 gp41-derived 5-Helix; biotinylated 5-Helix
# [2] = molecular target: T2, gp41 of the HIV-1 HXB2 envelope (HIV-1 strain HXB2, UniProt P04578 512-856); experiment: cell-based or functional assay
# [3] = molecular target: gp41 of the HIV-1 BaL envelope (HIV-1 strain BaL); experiment: cell-based or functional assay
# 5-Helix [4] = molecular target: T1, 5-Helix; experiment: SPR (Biacore)
# [5] = molecular target: T2, gp41 of the HIV-1 HXB2 envelope; experiment: cell-based or functional assay; remark: listed apart in the source
# [6] = molecular target: gp41 of the HIV-1 BaL envelope (HIV-1 strain BaL); experiment: cell-based or functional assay; remark: listed apart in the source
# [7] = molecular target: gp41 of the HIV-1 89.6 envelope (HIV-1 strain 89.6); experiment: cell-based or functional assay
# [8] = molecular target: gp41 of the HIV-1 MN-1 envelope (HIV-1 strain MN-1, UniProt P05877 514-856); experiment: cell-based or functional assay
# [9] = molecular target: gp41 of the HIV-1 NL4-3 envelope (HIV-1 strain NL4-3); experiment: cell-based or functional assay
Binder,binding result (5-Helix [1]),"IC50 (printed TC50), single cycle infectivity assay against HIV-HXB2 [2] [nM]","IC50, single cycle infectivity assay [2]","IC50, single cycle infectivity assay [3]",Kd (5-Helix [4]) [nM],koff (5-Helix [4]) [s⁻¹],kon (5-Helix [4]) [M⁻¹ s⁻¹],"IC50, single cycle infectivity assay against HIV-HXB2 [2] [nM]","D5 IgG IC50 (nM), single cycle infectivity assay [5] [nM]","D5 IgG IC50 (nM), single cycle infectivity assay [6] [nM]","D5 IgG IC50 (nM), single cycle infectivity assay [7] [nM]","D5 IgG IC50 (nM), single cycle infectivity assay [8] [nM]","D5 IgG IC50 (nM), single cycle infectivity assay [9] [nM]"
"5H/I1-BMV-B11 scFv (scFv, also called scFv B11) scFv: QVQLVQSGAEVKKPGSSVKVSCKASGGTFSSYAISWVRQAPGQGLEWMGGIIPLFDTSNYAQNFQGRITITADKSTSTAYMELSSLRFEDTAIYYCARDNPLLLAMDVWGKGTTVTVSSGGGGSGGGGSGGGGSDIQMTQSPSTLSASIGDRVTITCRASEGIYHWLAWYQQKPGKAPKLLIYKASSLASGAPSRFSGSGSGTDFTLTISSLQPDDFATYYCQQYSNYPLTFGGGTKLEIK",binds,–,–,–,–,–,–,–,–,–,–,–,–
"5H/I1-BMV-D5 scFv (scFv, also called scFv D5) scFv: QVQLVQSGAEVRKPGASVKVSCKASGDTFSSYAISWVRQAPGQGLEWMGGIIPIFGTANYAQKFQGRVTITADESTSTAYMELSSLRSEDTAIYYCARDNPTLLGSDYWGKGTLVTVSSGGGGSGGGGSGGGGSDIQMTQSPSTLSASIGDRVTITCRASEGIYHWLAWYQQKPGKAPKLLIYKASSLASGAPSRFSGSGSGTDFTLTISSLQPDDFATYYCQQYSNYPLTFGGGTKLEIK",binds,238,320 nM and 8 ug/ml,600 nM and 15 ug/ml,–,–,–,–,–,–,–,–,–
"D5 IgG (antibody, V domains shown, also called D5 IgG4; D5 antibody) VH: QVQLVQSGAEVRKPGASVKVSCKASGDTFSSYAISWVRQAPGQGLEWMGGIIPIFGTANYAQKFQGRVTITADESTSTAYMELSSLRSEDTAIYYCARDNPTLLGSDYWGKGTLVTVSS VL: DIQMTQSPSTLSASIGDRVTITCRASEGIYHWLAWYQQKPGKAPKLLIYKASSLASGAPSRFSGSGSGTDFTLTISSLQPDDFATYYCQQYSNYPLTFGGGTKLEIK",–,–,–,–,0.26,0.0001,390000,261,310,93,1750,393,226
